In patent US11504441B2, “Radiolabeled compounds targeting the prostate-specific membrane antigen” (PROVINCIAL HEALTH SERVICES AUTHORITY, priority 2019, dated 2022):

Test: in vivo
Set-up: species or system mice
Details: male, NODSCID 1L2RγKO, mouse, iv, total radioactivity

O=C(O)CCC[C@H](NC(=O)N[C@@H](CCCCNC(=O)[C@H](Cc1c2ccccc2cc2ccccc12)NC(=O)[C@H]1CC[C@H](CNC(=O)[C@H](CCCCNC(=O)CN2CCN(CC(=O)O)CCN(CC(=O)O)CCN(CC(=O)O)CC2)NC(=O)CNC(=O)CCCc2ccc(Cl)cc2)CC1)C(=O)O)C(=O)O [177Lu-HTK03153, metal not drawn]
tissue uptake at 1 h (Adrenal glands uptake): 4.52 ± 0.46 %ID/g | tissue uptake at 4 h (Adrenal glands uptake): 3.5 ± 0.46 %ID/g | tissue uptake at 24 h (Adrenal glands uptake): 2.35 ± 0.47 %ID/g | tissue uptake at 72 h (Adrenal glands uptake): 1.2 ± 0.26 %ID/g | tissue uptake at 120 h (Adrenal glands uptake): 0.82 ± 0.19 %ID/g | tissue uptake at 1 h (Blood uptake): 24.7 ± 2.11 %ID/g | tissue uptake at 4 h (Blood uptake): 18.8 ± 1.16 %ID/g | tissue uptake at 24 h (Blood uptake): 7.44 ± 1.12 %ID/g | tissue uptake at 72 h (Blood uptake): 1.46 ± 0.58 %ID/g | tissue uptake at 120 h (Blood uptake): 0.37 ± 0.13 %ID/g | tissue uptake at 1 h (Bone uptake): 1.26 ± 0.15 %ID/g | tissue uptake at 4 h (Bone uptake): 0.83 ± 0.15 %ID/g | tissue uptake at 24 h (Bone uptake): 0.4 ± 0.08 %ID/g | tissue uptake at 72 h (Bone uptake): 0.16 ± 0.06 %ID/g | tissue uptake at 120 h (Bone uptake): 0.06 ± 0.04 %ID/g | tissue uptake at 1 h (Brain uptake): 0.35 ± 0.03 %ID/g | tissue uptake at 4 h (Brain uptake): 0.27 ± 0.03 %ID/g | tissue uptake at 24 h (Brain uptake): 0.13 ± 0.02 %ID/g | tissue uptake at 72 h (Brain uptake): 0.05 ± 0.02 %ID/g | tissue uptake at 120 h (Brain uptake): 0.03 %ID/g | tissue uptake at 1 h (Fat uptake): 1.61 ± 0.36 %ID/g | tissue uptake at 4 h (Fat uptake): 1.46 ± 0.36 %ID/g | tissue uptake at 24 h (Fat uptake): 0.66 ± 0.16 %ID/g | tissue uptake at 72 h (Fat uptake): 0.3 ± 0.13 %ID/g | tissue uptake at 120 h (Fat uptake): 0.19 ± 0.09 %ID/g | tissue uptake at 1 h (Heart uptake): 5.95 ± 0.44 %ID/g | tissue uptake at 4 h (Heart uptake): 4.26 ± 0.44 %ID/g | tissue uptake at 24 h (Heart uptake): 1.9 ± 0.25 %ID/g | tissue uptake at 72 h (Heart uptake): 0.68 ± 0.25 %ID/g | tissue uptake at 120 h (Heart uptake): 0.32 ± 0.07 %ID/g | tissue uptake at 1 h (Intestine uptake): 1.56 ± 0.16 %ID/g | tissue uptake at 4 h (Intestine uptake): 1.22 ± 0.16 %ID/g | tissue uptake at 24 h (Intestine uptake): 0.78 ± 0.1 %ID/g | tissue uptake at 72 h (Intestine uptake): 0.3 ± 0.1 %ID/g | tissue uptake at 120 h (Intestine uptake): 0.18 ± 0.08 %ID/g | tissue uptake at 1 h (Kidneys uptake): 10 ± 1.09 %ID/g | tissue uptake at 4 h (Kidneys uptake): 9.1 ± 1.09 %ID/g | tissue uptake at 24 h (Kidneys uptake): 8.81 ± 1.06 %ID/g | tissue uptake at 72 h (Kidneys uptake): 4.95 ± 2.39 %ID/g | tissue uptake at 120 h (Kidneys uptake): 2.81 ± 0.35 %ID/g | tissue uptake at 1 h (Lacrimal uptake): 0.35 ± 0.07 %ID/g | tissue uptake at 4 h (Lacrimal uptake): 0.35 ± 0.14 %ID/g | tissue uptake at 24 h (Lacrimal uptake): 0.18 ± 0.06 %ID/g | tissue uptake at 72 h (Lacrimal uptake): 0.05 ± 0.05 %ID/g | tissue uptake at 120 h (Lacrimal uptake): 0.02 ± 0.02 %ID/g | tissue uptake at 1 h (Liver uptake): 3.61 ± 0.65 %ID/g | tissue uptake at 4 h (Liver uptake): 3.19 ± 0.65 %ID/g | tissue uptake at 24 h (Liver uptake): 1.52 ± 0.25 %ID/g | tissue uptake at 72 h (Liver uptake): 0.73 ± 0.21 %ID/g | tissue uptake at 120 h (Liver uptake): 0.4 ± 0.03 %ID/g | tissue uptake at 1 h (Lungs uptake): 10.8 ± 1.38 %ID/g | tissue uptake at 4 h (Lungs uptake): 9.4 ± 1.38 %ID/g | tissue uptake at 24 h (Lungs uptake): 3.93 ± 0.41 %ID/g | tissue uptake at 72 h (Lungs uptake): 1.87 ± 1.31 %ID/g | tissue uptake at 120 h (Lungs uptake): 0.56 ± 0.12 %ID/g | tissue uptake at 1 h (Muscle uptake): 1.54 ± 0.16 %ID/g | tissue uptake at 4 h (Muscle uptake): 1.19 ± 0.16 %ID/g | tissue uptake at 24 h (Muscle uptake): 0.56 ± 0.1 %ID/g | tissue uptake at 72 h (Muscle uptake): 0.18 ± 0.07 %ID/g | tissue uptake at 120 h (Muscle uptake): 0.07 ± 0.01 %ID/g | tissue uptake at 1 h (Pancreas uptake): 2.17 ± 0.21 %ID/g | tissue uptake at 4 h (Pancreas uptake): 1.6 ± 0.21 %ID/g | tissue uptake at 24 h (Pancreas uptake): 0.77 ± 0.09 %ID/g | tissue uptake at 72 h (Pancreas uptake): 0.29 ± 0.13 %ID/g | tissue uptake at 120 h (Pancreas uptake): 0.15 ± 0.04 %ID/g | tissue uptake at 1 h (Salivary uptake): 3.56 ± 0.39 %ID/g | tissue uptake at 4 h (Salivary uptake): 2.86 ± 0.39 %ID/g | tissue uptake at 24 h (Salivary uptake): 1.25 ± 0.14 %ID/g | tissue uptake at 72 h (Salivary uptake): 0.68 ± 0.22 %ID/g | tissue uptake at 120 h (Salivary uptake): 0.37 ± 0.04 %ID/g | tissue uptake at 1 h (Seminal uptake): 1.3 ± 0.32 %ID/g | tissue uptake at 4 h (Seminal uptake): 1.2 ± 0.32 %ID/g | tissue uptake at 24 h (Seminal uptake): 0.7 ± 0.5 %ID/g | tissue uptake at 72 h (Seminal uptake): 0.23 ± 0.11 %ID/g | tissue uptake at 120 h (Seminal uptake): 0.15 ± 0.05 %ID/g | tissue uptake at 1 h (Spleen uptake): 2.54 ± 0.27 %ID/g | tissue uptake at 4 h (Spleen uptake): 1.54 ± 0.27 %ID/g | tissue uptake at 24 h (Spleen uptake): 1.21 ± 0.24 %ID/g | tissue uptake at 72 h (Spleen uptake): 1.03 ± 0.46 %ID/g | tissue uptake at 120 h (Spleen uptake): 1.53 ± 0.71 %ID/g | tissue uptake at 1 h (Stomach uptake): 0.89 ± 0.15 %ID/g | tissue uptake at 4 h (Stomach uptake): 0.71 ± 0.15 %ID/g | tissue uptake at 24 h (Stomach uptake): 0.68 ± 0.15 %ID/g | tissue uptake at 72 h (Stomach uptake): 0.31 ± 0.17 %ID/g | tissue uptake at 120 h (Stomach uptake): 0.15 ± 0.1 %ID/g | tissue uptake at 1 h (Tail uptake): 5.38 ± 5.96 %ID/g | tissue uptake at 4 h (Tail uptake): 6.89 ± 5.96 %ID/g | tissue uptake at 24 h (Tail uptake): 1.55 ± 0.34 %ID/g | tissue uptake at 72 h (Tail uptake): 0.44 ± 0.15 %ID/g | tissue uptake at 120 h (Tail uptake): 0.24 ± 0.04 %ID/g | tissue uptake at 1 h (Testes uptake): 3.24 ± 0.4 %ID/g | tissue uptake at 4 h (Testes uptake): 3.45 ± 0.4 %ID/g | tissue uptake at 24 h (Testes uptake): 2.15 ± 0.33 %ID/g | tissue uptake at 72 h (Testes uptake): 1.38 ± 0.48 %ID/g | tissue uptake at 120 h (Testes uptake): 0.98 ± 0.22 %ID/g | tissue uptake at 1 h (Thyroid uptake): 4.8 ± 0.32 %ID/g | tissue uptake at 4 h (Thyroid uptake): 3.57 ± 0.32 %ID/g | tissue uptake at 24 h (Thyroid uptake): 1.95 ± 0.32 %ID/g | tissue uptake at 72 h (Thyroid uptake): 0.85 ± 0.28 %ID/g | tissue uptake at 120 h (Thyroid uptake): 0.52 ± 0.12 %ID/g | tissue uptake at 1 h (Tumor uptake): 14.2 ± 7.67 %ID/g | tissue uptake at 4 h (Tumor uptake): 27.9 ± 7.67 %ID/g | tissue uptake at 24 h (Tumor uptake): 57.2 ± 10.1 %ID/g | tissue uptake at 72 h (Tumor uptake): 69.1 ± 13.4 %ID/g | tissue uptake at 120 h (Tumor uptake): 86.4 ± 8.05 %ID/g
